# Data as given in publication PMC5024704.
# Experiments:
# [1] = target: SgcE6 flavin reductase (Streptomyces globisporus); assay: SEC
# [2] = target: SgcC FADH2-dependent monooxygenase (Streptomyces globisporus); assay: SEC
stoichiometry N [1],stoichiometry N [2],Substance
2,,SgcE6 flavin reductase (enzyme)
,4,SgcC FADH2-dependent monooxygenase (enzyme)
